Reference: patent US20110300138A1 (published 2011)
Values belong to the molecule of their own block, whether it stands above or below them.

Key:
[1] = biological target: TSHR (thyroid stimulating hormone receptor), full length human (human) (UniProt P16473); test: competitor ^125I-K1-70 IgG, TSHR coated tubes; 100 µg/mL in HBD
[2] = biological target: full length wild type human TSHR (human) (UniProt P16473); test: TSHR260-AP bridge ELISA, wild type TSHR on wells; IgG at 0.5 µg/mL in HBD
[3] = biological target: thyroid stimulating hormone receptor (TSHR), full length human TSHR (human) (UniProt P16473); test: TSH-biotin competition ELISA, TSHR coated wells; 0.01 µg/mL in assay buffer
[4] = biological target: TSH receptor (TSHR), full length human, coated on tubes (human) (UniProt P16473); test: inhibition of 125I-K1-18 IgG binding to TSHR coated tubes; competitor 125I-K1-18 IgG; sample at 1 µg/mL in HBD serum
[5] = biological target: TSH receptor (full length human TSHR) (human) (UniProt P16473); test: competition ELISA: inhibition of M22 Fab-peroxidase (competitor) binding to TSHR coated wells; test sample at 0.01 µg/mL diluted in HBD serum pool
[6] = biological target: TSH receptor (full length human TSHR) coated on tubes (human) (UniProt P16473); test: 125I-TSH binding inhibition read against NIBSC 90/672; 30 ng/mL, in serum
[7] = biological target: human TSH receptor (full length) coated on ELISA plate wells (human) (UniProt P16473); test: TSH-biotin binding inhibition ELISA, TSHR coated wells; 0.003 µg/mL in assay buffer + 100 µg/mL 5B3 IgG
[8] = biological target: TSH receptor (TSHR) coated on tubes (human) (UniProt P16473); test: inhibition of 125I-K1-70 IgG binding to TSHR coated tubes; sample 0.003 µg/mL in HBD serum pool; duplicate determination
[9] = biological target: TSHR with Arg109 mutated to Ala, expressed in CHO cells (human) (UniProt P16473); test: cell-based or functional assay
[10] = biological target: TSHR with Phe134 mutated to Ala, expressed in CHO cells (human) (UniProt P16473); test: cell-based or functional assay
[11] = biological target: wild type TSHR expressed in CHO cells (human) (UniProt P16473); test: cell-based or functional assay
[12] = biological target: TSHR with Trp258 mutated to Ala, expressed in CHO cells (human) (UniProt P16473); test: cell-based or functional assay
[13] = biological target: wild type TSHR (human TSH receptor) expressed in CHO cells (human) (UniProt P16473); test: cell-based or functional assay
[14] = biological target: TSHR (thyroid stimulating hormone receptor), full length human (human) (UniProt P16473); test: negative control; competitor ^125I-K1-70 IgG, TSHR coated tubes; 10 µg/mL in assay buffer
[15] = biological target: TSH receptor (TSHR) coated on tubes (human) (UniProt P16473); test: inhibition of 125I-K1-70 IgG binding to TSHR coated tubes; negative control 0.1 µg/mL in HBD serum pool
[16] = biological target: human thyroid stimulating hormone receptor (TSHR), full length (human) (UniProt P16473); test: 125I-K1-70 Fab (competitor) binding to TSHR coated tubes; negative control MAb 0.001 µg/mL in HBD serum
[17] = biological target: TSH receptor (TSHR), full length human, coated on tubes (human) (UniProt P16473); test: inhibition of 125I-K1-18 IgG binding to TSHR coated tubes; competitor 125I-K1-18 IgG; negative control sample at 0.01 µg/mL in assay buffer
[18] = biological target: TSH receptor (full length human TSHR) (human) (UniProt P16473); test: competition ELISA: inhibition of M22 Fab-peroxidase (competitor) binding to TSHR coated wells; negative control at 1 µg/mL diluted in assay buffer
[19] = biological target: TSH receptor (full length human TSHR) (human) (UniProt P16473); test: competition ELISA: inhibition of M22 Fab-peroxidase (competitor) binding to TSHR coated wells; negative control at 0.1 µg/mL diluted in assay buffer
[20] = biological target: TSH receptor (full length human TSHR) (human) (UniProt P16473); test: competition ELISA: inhibition of M22 Fab-peroxidase (competitor) binding to TSHR coated wells; negative control at 0.01 µg/mL diluted in assay buffer
[21] = biological target: TSH receptor (full length human TSHR) (human) (UniProt P16473); test: competition ELISA: inhibition of M22 Fab-peroxidase (competitor) binding to TSHR coated wells; negative control at 100 µg/mL diluted in HBD serum pool
[22] = biological target: human thyroid stimulating hormone receptor (TSHR), full length (human) (UniProt P16473); test: 125I-K1-18 Fab competition, TSHR coated tubes; 1 µg/mL in assay buffer
[23] = biological target: thyroid stimulating hormone receptor (TSHR), full length, coated on tubes (human) (UniProt P16473); test: inhibition of 125I-TSH binding, TSHR coated tubes; antibody 0.1 µg/mL in assay buffer; mean of duplicate
[24] = biological target: TSH receptor (TSHR), full length human, coated on tubes (human) (UniProt P16473); test: inhibition of 125I-K1-18 IgG (competitor) binding to TSHR coated tubes; test sample at 0.1 µg/mL in HBD serum pool

Inhibition of binding (%) [1]: 51.1%
Mean absorbance at 405 nm (absorbance at 405 nm) [2]: 0.273
Inhibition of binding (%) [3]: 15.3%
Inhibition of binding (%) [4]: 62.1%
Inhibition of binding (%) [5]: 6.2%
Molecule: 9D33 IgG (antibody)

units/L [6]: 4.3 units/L
% inhibition of TSH-biotin binding [7]: -0.5%
Inhibition of binding (%) [8]: 6.2%
Molecule: M22 IgG (antibody)

The remaining lines, values behind:

Molecule: TSH (ligand)
Cyclic AMP produced, mutated TSHR, TSH 0.01 ng/mL [9]: 3.15 pmol/mL
Cyclic AMP produced, mutated TSHR, TSH 0.03 ng/mL [9]: 4.92 pmol/mL
Cyclic AMP produced, mutated TSHR, TSH 0.1 ng/mL [9]: 8.39 pmol/mL
Cyclic AMP produced, mutated TSHR, TSH 0.3 ng/mL [9]: 39.2 pmol/mL
Cyclic AMP produced, mutated TSHR, TSH 1 ng/mL [9]: 43.8 pmol/mL
Cyclic AMP produced, mutated TSHR, TSH 3 ng/mL [9]: 55.2 pmol/mL
Mutated/Wild type (%) of cyclic AMP produced, TSH 0.01 ng/mL [9]: 115%
Mutated/Wild type (%) of cyclic AMP produced, TSH 0.03 ng/mL [9]: 116%
Mutated/Wild type (%) of cyclic AMP produced, TSH 0.1 ng/mL [9]: 89%
Mutated/Wild type (%) of cyclic AMP produced, TSH 0.3 ng/mL [9]: 99%
Mutated/Wild type (%) of cyclic AMP produced, TSH 1 ng/mL [9]: 72%
Mutated/wild type (%) of cyclic AMP produced; TSH 3 ng/mL [9]: 78%
Cyclic AMP produced, TSH 0.01 ng/mL, mutated TSHR [10]: 4.73 pmol/mL
Cyclic AMP produced, TSH 0.03 ng/mL, mutated TSHR [10]: 6.05 pmol/mL
Cyclic AMP produced, TSH 0.1 ng/mL, mutated TSHR [10]: 12.7 pmol/mL
Cyclic AMP produced, TSH 0.3 ng/mL, mutated TSHR [10]: 27.3 pmol/mL
Cyclic AMP produced, TSH 1 ng/mL, mutated TSHR [10]: 53.7 pmol/mL
Cyclic AMP produced, TSH 3 ng/mL, mutated TSHR [10]: 61.5 pmol/mL
Mutated/Wild type (%), TSH 0.01 ng/mL [10]: 189%
Mutated/Wild type (%), TSH 0.03 ng/mL [10]: 141%
Mutated/Wild type (%), TSH 0.1 ng/mL [10]: 120%
Mutated/Wild type (%), TSH 0.3 ng/mL [10]: 94%
Mutated/Wild type (%), TSH 1 ng/mL [10]: 102%
Mutated/Wild type (%), TSH 3 ng/mL [10]: 101%
Cyclic AMP produced, TSH 0.01 ng/mL, wild type TSHR [11]: 2.5 pmol/mL
Cyclic AMP produced, TSH 0.03 ng/mL, wild type TSHR [11]: 4.29 pmol/mL
Cyclic AMP produced, TSH 0.1 ng/mL, wild type TSHR [11]: 10.6 pmol/mL
Cyclic AMP produced, TSH 0.3 ng/mL, wild type TSHR [11]: 28.9 pmol/mL
Cyclic AMP produced, TSH 1 ng/mL, wild type TSHR [11]: 52.5 pmol/mL
Cyclic AMP produced, TSH 3 ng/mL, wild type TSHR [11]: 61.1 pmol/mL

Molecule: 5B3 IgG (antibody)
% inhibition of TSH stimulation; 5B3 10 µg/mL [12]: 15%
% inhibition of TSH stimulation; 5B3 100 µg/mL [12]: 4%
Cyclic AMP produced; 5B3 10 µg/mL + TSH 3 ng/mL [12]: 50.7 pmol/mL
Cyclic AMP produced; 5B3 100 µg/mL + TSH 3 ng/mL [12]: 57.6 pmol/mL
Mutated/wild type (%) of cyclic AMP produced; 5B3 10 µg/mL + TSH 3 ng/mL [12]: 75%
Mutated/wild type (%) of cyclic AMP produced; 5B3 100 µg/mL + TSH 3 ng/mL [12]: 79%
Cyclic AMP produced; 5B3 10 µg/mL + TSH 3 ng/mL [13]: 67.7 pmol/mL
Cyclic AMP produced; 5B3 100 µg/mL + TSH 3 ng/mL [13]: 72.8 pmol/mL
Inhibition of binding (%) [14]: 2.3%
Inhibition of binding (%) [15]: 9.4%
Inhibition of binding (%) [16]: -12.1%
Inhibition of binding (%) [17]: -4.2%
Inhibition of binding (%) [18]: 3.4%
Inhibition of binding (%) [19]: 1.4%
Inhibition of binding (%) [20]: 2.2%
Inhibition of binding (%) [21]: 3.8%

B1: 5C9 IgG (antibody, from another filing, V domains shown)
VH: EVQLVESGGGLIQPGGSLRLSCAASGFTVSSNYMSWVRQAPGKGLEWVSVTYSGGSTSYADSVKGRFTISRDNSKNTLYLQMNSLRAEDTAVYYCARGGRYCSSISCYARSGCDYWGQGTLVTVSS
VL: AIQMTQSPSSLSASVGDRVTITCRASQSISNYLNWYQQKPGKAPKLLIYAASSLQSGVPSRFSGSGSGTDFTLTISSLQPEDFATYYCQQSYSSPSTTFGQGTKLEIK
Inhibition of binding (%) [22]: 52.5%
Inhibition of binding (%) [23]: 21.3%
Inhibition of binding (%) [24]: 21.3%
